Patent US20170327598A1 (published 2017)
Like-named read-outs stand apart in the source and are kept apart here.

Tests used:
[1] = target: TNF-alpha (U937 cytotoxicity assay of Example 16) (UniProt P01375 77-233, limits assumed); experiment: cell-based or functional assay
[2] = target: T1, active human TNF-α full length protein (human, UniProt P01375 77-233)
[3] = target: T1, active human TNF-α full length protein; experiment: ELISA, wells coated with 0.5 µg/mL TNF-α, sdAb at 1 µg/mL
[4] = target: T1, active human TNF-α full length protein; remark: listed apart in the source
[5] = target: T1, active human TNF-α full length protein; remark: listed apart in the source
[6] = target: T1, active human TNF-α full length protein; remark: listed apart in the source
[7] = target: T1, active human TNF-α full length protein; remark: listed apart in the source
[8] = target: T1, active human TNF-α full length protein; remark: listed apart in the source
[9] = target: T1, active human TNF-α full length protein; remark: listed apart in the source
[10] = target: T1, active human TNF-α full length protein; remark: listed apart in the source
[11] = target: T1, active human TNF-α full length protein; remark: listed apart in the source
[12] = target: T1, active human TNF-α full length protein; remark: listed apart in the source
[13] = target: T1, active human TNF-α full length protein; remark: listed apart in the source
[14] = target: T1, active human TNF-α full length protein; remark: listed apart in the source
STAT 2 protein [15] = target: T2, STAT 2 protein (UniProt P52630 1-851, limits assumed); experiment: sandwich ELISA, STAT protein coated at 0.5 µg/mL
STAT 1 protein [16] = target: T3, STAT 1 protein (UniProt P42224 1-750, limits assumed); experiment: sandwich ELISA, STAT protein coated at 0.5 µg/mL
T3 sequence (looked up): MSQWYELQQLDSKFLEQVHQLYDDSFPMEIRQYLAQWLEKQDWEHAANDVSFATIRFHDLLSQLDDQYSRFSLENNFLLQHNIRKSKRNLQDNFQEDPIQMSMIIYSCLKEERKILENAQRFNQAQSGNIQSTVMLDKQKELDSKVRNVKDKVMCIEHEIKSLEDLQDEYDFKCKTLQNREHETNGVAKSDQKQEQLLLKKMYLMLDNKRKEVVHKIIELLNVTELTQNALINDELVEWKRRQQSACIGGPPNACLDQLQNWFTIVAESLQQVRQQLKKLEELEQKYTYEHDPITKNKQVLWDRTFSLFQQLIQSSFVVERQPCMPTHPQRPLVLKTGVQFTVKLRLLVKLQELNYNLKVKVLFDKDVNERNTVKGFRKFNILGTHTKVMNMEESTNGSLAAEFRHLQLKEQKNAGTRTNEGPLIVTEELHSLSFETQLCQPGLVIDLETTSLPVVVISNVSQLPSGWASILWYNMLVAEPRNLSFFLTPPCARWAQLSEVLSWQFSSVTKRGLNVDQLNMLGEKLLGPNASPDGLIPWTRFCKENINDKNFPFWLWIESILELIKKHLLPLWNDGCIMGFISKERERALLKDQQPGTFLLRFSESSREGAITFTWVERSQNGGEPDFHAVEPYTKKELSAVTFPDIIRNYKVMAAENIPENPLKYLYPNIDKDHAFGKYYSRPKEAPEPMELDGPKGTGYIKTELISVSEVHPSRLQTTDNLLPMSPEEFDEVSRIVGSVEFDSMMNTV

STAT 5a protein [17] = target: T4, STAT 5a protein (UniProt P42229 1-794, limits assumed); experiment: sandwich ELISA, STAT protein coated at 0.5 µg/mL
T4 sequence (looked up): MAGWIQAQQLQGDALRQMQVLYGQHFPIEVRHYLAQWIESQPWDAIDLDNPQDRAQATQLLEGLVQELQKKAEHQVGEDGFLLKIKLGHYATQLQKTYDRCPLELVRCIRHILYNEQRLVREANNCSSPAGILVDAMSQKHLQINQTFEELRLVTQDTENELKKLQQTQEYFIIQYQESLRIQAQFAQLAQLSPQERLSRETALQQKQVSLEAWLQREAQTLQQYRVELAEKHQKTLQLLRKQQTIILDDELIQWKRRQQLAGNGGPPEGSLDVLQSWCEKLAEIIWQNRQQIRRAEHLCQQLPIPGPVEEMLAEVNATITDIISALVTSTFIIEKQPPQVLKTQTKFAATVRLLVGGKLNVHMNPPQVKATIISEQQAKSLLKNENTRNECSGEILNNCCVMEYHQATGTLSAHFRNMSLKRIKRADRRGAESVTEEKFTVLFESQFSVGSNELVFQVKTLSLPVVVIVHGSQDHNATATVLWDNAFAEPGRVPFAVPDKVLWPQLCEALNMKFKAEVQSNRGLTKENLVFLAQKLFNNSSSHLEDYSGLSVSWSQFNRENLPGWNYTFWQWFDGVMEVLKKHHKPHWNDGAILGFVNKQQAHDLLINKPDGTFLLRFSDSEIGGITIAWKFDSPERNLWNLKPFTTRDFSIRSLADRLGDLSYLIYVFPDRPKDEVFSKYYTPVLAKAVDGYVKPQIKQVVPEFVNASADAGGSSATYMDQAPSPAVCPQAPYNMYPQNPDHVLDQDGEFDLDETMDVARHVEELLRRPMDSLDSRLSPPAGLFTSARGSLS

STAT 2 protein [18] = target: T2, STAT 2 protein; experiment: sandwich ELISA, STAT protein coated at 0.5 µg/mL; remark: listed apart in the source
STAT 1 protein [19] = target: T3, STAT 1 protein; experiment: sandwich ELISA, STAT protein coated at 0.5 µg/mL; remark: listed apart in the source
STAT 5a protein [20] = target: T4, STAT 5a protein; experiment: sandwich ELISA, STAT protein coated at 0.5 µg/mL; remark: listed apart in the source
STAT 2 protein [21] = target: T2, STAT 2 protein; experiment: sandwich ELISA, STAT protein coated at 0.5 µg/mL; remark: listed apart in the source
STAT 1 protein [22] = target: T3, STAT 1 protein; experiment: sandwich ELISA, STAT protein coated at 0.5 µg/mL; remark: listed apart in the source
STAT 5a protein [23] = target: T4, STAT 5a protein; experiment: sandwich ELISA, STAT protein coated at 0.5 µg/mL; remark: listed apart in the source
STAT 2 protein [24] = target: T2, STAT 2 protein; experiment: sandwich ELISA, STAT protein coated at 0.5 µg/mL; remark: listed apart in the source
STAT 1 protein [25] = target: T3, STAT 1 protein; experiment: sandwich ELISA, STAT protein coated at 0.5 µg/mL; remark: listed apart in the source
STAT 5a protein [26] = target: T4, STAT 5a protein; experiment: sandwich ELISA, STAT protein coated at 0.5 µg/mL; remark: listed apart in the source
[27] = target: Human recombinant TNF-α (Sigma-Aldrich) (human, UniProt P01375 77-233); experiment: cell-based or functional assay
Chain of Human recombinant TNF-α (Sigma-Aldrich) (P01375 77-233 limits assumed): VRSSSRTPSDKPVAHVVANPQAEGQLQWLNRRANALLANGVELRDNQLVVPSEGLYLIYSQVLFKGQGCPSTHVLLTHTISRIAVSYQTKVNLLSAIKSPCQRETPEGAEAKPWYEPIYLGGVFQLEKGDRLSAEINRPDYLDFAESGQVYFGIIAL

T1 sequence (P01375 77-233 limits assumed): as above
T2 sequence (P52630 whole entry): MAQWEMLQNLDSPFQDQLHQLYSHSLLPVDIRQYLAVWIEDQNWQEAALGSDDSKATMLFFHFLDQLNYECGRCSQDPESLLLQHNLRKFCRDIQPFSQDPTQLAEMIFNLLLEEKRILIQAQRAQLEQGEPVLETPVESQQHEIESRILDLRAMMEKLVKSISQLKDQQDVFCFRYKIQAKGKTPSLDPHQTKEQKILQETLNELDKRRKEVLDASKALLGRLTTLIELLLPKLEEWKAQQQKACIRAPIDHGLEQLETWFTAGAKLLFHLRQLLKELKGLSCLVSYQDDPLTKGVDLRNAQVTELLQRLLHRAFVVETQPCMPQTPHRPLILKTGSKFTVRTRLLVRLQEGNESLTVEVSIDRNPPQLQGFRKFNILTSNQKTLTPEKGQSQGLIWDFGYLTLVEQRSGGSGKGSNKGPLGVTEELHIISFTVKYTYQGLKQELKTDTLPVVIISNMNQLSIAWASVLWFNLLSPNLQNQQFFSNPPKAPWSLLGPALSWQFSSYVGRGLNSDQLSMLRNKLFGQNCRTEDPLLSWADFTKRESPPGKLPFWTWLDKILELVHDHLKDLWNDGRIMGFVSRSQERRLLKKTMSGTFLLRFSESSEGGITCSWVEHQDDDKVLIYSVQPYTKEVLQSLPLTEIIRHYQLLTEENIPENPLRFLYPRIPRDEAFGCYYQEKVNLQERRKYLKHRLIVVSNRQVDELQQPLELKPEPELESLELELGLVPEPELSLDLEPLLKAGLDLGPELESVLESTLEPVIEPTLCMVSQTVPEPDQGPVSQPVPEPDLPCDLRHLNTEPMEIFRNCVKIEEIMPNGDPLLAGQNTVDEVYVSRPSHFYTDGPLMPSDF
Chain of TNF-alpha (U937 cytotoxicity assay of Example 16) (P01375 77-233 limits assumed): as the sequence (P01375 77-233 limits assumed) above

B1: anti-TNF-alpha VHH62 (SEQ ID NO:47) sdAb (VHH)
VHH: QVQLVESGGGPVQAGETLRLSCTASGFTFAEADMGWYRQAPGHECELVSTITTEGITSEASSYYADSVRGRFTISRDNAKNMVYLQMNSLKPEDTAVYYCAPDPYAYSTYSDYCSWAQGTQGTLVTVSS
IC50 (inhibition of TNF-alpha cytotoxicity against U937 cells, ATP luminescence) [1]: ~714 µg/mL

B2: anti-TNF-alpha VHH62 (SEQ ID NO:47) sdAb (VHH)
VHH: QVQLVESGGGPVQAGETLRLSCTASGFTFAEADMGWYRQAPGHECELVSTITTEGITSEASSYYADSVRGRFTISRDNAKNMVYLQMNSLKPEDTAVYYCAPDPYAYSTYSDYCSWAQGTQGTLVTVSS
Signal/Noise Ratio [2]: 1.9
OD450 [3]: 0.005 OD450
Signal/Noise Ratio [4]: 0.9
Signal/Noise Ratio [5]: 1.5
Signal/Noise Ratio [6]: 2
Signal/Noise Ratio [7]: 1.4
Signal/Noise Ratio [8]: 1.4
Signal/Noise Ratio [9]: 1.3
Signal/Noise Ratio [10]: 1.1
Signal/Noise Ratio [11]: 1.7
Signal/Noise Ratio [12]: 1.5
Signal/Noise Ratio [13]: 1.1
Signal/Noise Ratio [14]: 1.1

B3: STAT5-31 (SEQ ID NO:83) sdAb (VHH)
VHH: EVQLVESGGGSVQTGGSLRLSCAASGFPFSSHVMGWFRQAPGKKREGVAAISVDSGSTWYADSVKGRFTISLDSAKNTLYLQMNSLKPEDTAMYYCATRRGVILTLSPETYDYWGQGTQVTVSS
Mean OD450 (STAT 2 protein [15]): 0.007 OD450
Mean OD450 (STAT 1 protein [16]): 0.024 OD450
Mean OD450 (STAT 5a protein [17]): 0.017 OD450
Mean OD450 (STAT 2 protein [18]): 0.015 OD450
Mean OD450 (STAT 1 protein [19]): 0.056 OD450
Mean OD450 (STAT 5a protein [20]): 0 OD450
Mean OD450 (STAT 2 protein [21]): 0.076 OD450
Mean OD450 (STAT 1 protein [22]): 0.122 OD450
Mean OD450 (STAT 5a protein [23]): 0.158 OD450
Mean OD450 (STAT 2 protein [24]): 0 OD450
Mean OD450 (STAT 1 protein [25]): 0.015 OD450
Mean OD450 (STAT 5a protein [26]): 0 OD450

B4: anti-TNF-alpha VHH69 (SEQ ID NO:46) sdAb (VHH)
VHH: EVQLVESGGGSVLAGGSLRLSCVASGFTSRYNYMAWFRQAPGKEREGVATIGTASGSADYYGSVKDRFTISQDNAKNTVYLQMNSLKPEDTAMYYCAARTYGTISLTPSDYRYWGQGTLVTVSS
IC50 (inhibition of TNF-alpha cytotoxicity against U937 cells, ATP luminescence) [1]: > 208 µg/mL

B5: anti-TNF-alpha VHH69 (SEQ ID NO:46) sdAb (VHH)
VHH: EVQLVESGGGSVLAGGSLRLSCVASGFTSRYNYMAWFRQAPGKEREGVATIGTASGSADYYGSVKDRFTISQDNAKNTVYLQMNSLKPEDTAMYYCAARTYGTISLTPSDYRYWGQGTLVTVSS
Signal/Noise Ratio [2]: 7.5
OD450 [3]: 1.95 OD450
Signal/Noise Ratio [4]: 1.3
Signal/Noise Ratio [5]: 3.7
Signal/Noise Ratio [6]: 8
Signal/Noise Ratio [7]: 2.4
Signal/Noise Ratio [8]: 2.1
Signal/Noise Ratio [9]: 1.9
Signal/Noise Ratio [10]: 1.5
Signal/Noise Ratio [11]: 5.9
Signal/Noise Ratio [12]: 3.2
Signal/Noise Ratio [13]: 1.6
Signal/Noise Ratio [14]: 1.6

B6: anti-TNF-alpha VHH66 (SEQ ID NO:45) sdAb (VHH)
VHH: HVQLVESGGGSVEAGGSLRLSCAASGFRYAAYCMGWFRQADGKEREGVATIDIDGLTTHADSVKGRFTISRDNAKNTLSLQMNDLKPEDTAMYYCAADRDRCGSIWTYAYKYRGQGTLVTVSS
EC50 (inhibition of TNF-α cytotoxicity on L929 cells, Assay 1, Batch A) [27]: 2.9 µg/mL
EC50 (inhibition of TNF-α cytotoxicity on L929 cells, Assay 1, Batch B) [27]: 1.2 µg/mL
EC50 (inhibition of TNF-α cytotoxicity on L929 cells, Assay 1, Batch C) [27]: 2.3 µg/mL
EC50 (inhibition of TNF-α cytotoxicity on L929 cells, Assay 2, Batch B) [27]: 4.5 µg/mL
EC50 (inhibition of TNF-α cytotoxicity on L929 cells, Assay 2, Batch C) [27]: 6.2 µg/mL

B7: anti-TNF-alpha VHH66 (SEQ ID NO:45) sdAb (VHH)
VHH: HVQLVESGGGSVEAGGSLRLSCAASGFRYAAYCMGWFRQADGKEREGVATIDIDGLTTHADSVKGRFTISRDNAKNTLSLQMNDLKPEDTAMYYCAADRDRCGSIWTYAYKYRGQGTLVTVSS
OD450 [3]: 3.86 OD450
